Source: article PMC12637224, “The nonconserved integrin cytoplasmic region determines integrin subtype–specific characteristics by modulating talin1 binding kinetics” (The Journal of Biological Chemistry, 2025)

Columns and labels:
[1] = target: T1, HaloTag-fused talin1 (HT-talin1), endogenous knock-in in mouse primary T cells (mouse (endogenous knock-in in mouse T …, UniProt P26039 1-2541, HaloTag labelled with HT SaraFluor 650T Ligand)); test: activated T cells, on MAdCAM1
[2] = target: T1, HaloTag-fused talin1 (HT-talin1), …; test: naive T cells, on MAdCAM1

B1: α4/β7 integrin, endogenous on mouse primary T cells (receptor)
chain 1: YNLDPENALLYQGPSGTLFGYSVVLHSHGSKRWLIVGAPTASWLSNASVVNPGAIYRCGIRKNPNQTCEQLQSGSPSGEPCGKTCLEERDNQWLGVTLSRQPGENGSIVTCGHRWKNIFYMKSDNKLPTGICYVMPSDLRTELSKRMAPCYKDYTRKFGENFASCQAGISSFYTQDLIVMGAPGSSYWTGTVFVYNITTNQYKAFVDRQNQVKFGSYLGYSVGAGHFRSPHTTEVVGGAPQHEQIGKAYIFSIDENELNIVYEMKGKKLGSYFGASVCAVDLNADGFSDLLVGAPMQSTIREEGRVFVYINSGMGAVMVEMERVLVGSDKYAARFGESIANLGDIDNDGFEDIAIGAPQEDDLRGAVYIYNGRVDGISSTYSQRIEGQQISKSLRMFGQSISGQIDADNNGYVDVAVGAFQSDSAVLLRTRPVVIVEASLSHPESVNRTKFDCTENGLPSVCMHLTLCFSYKGKEVPGYIVLFYNVSLDVHRKAESPSRFYFFSNGTSDVITGSIRVSSSGEKCRTHQAFMRKDVRDILTPIHVEATYHLGHHVITKRNTEEFPPLQPILQQKKEKDVIRKMINFARFCAYENCSADLQVSAKVGFLKPYENKTYLAVGSMKTIMLNVSLFNAGDDAYETTLNVQLPTGLYFIKILDLEEKQINCEVTESSGIVKLACSLGYIYVDRLSRIDISFLLDVSSLSRAHEDLSISVHASCENEGELDQVRDNRVTLTIPLRYEVMLTVHGLVNPTSFVYGSSEENEPETCMAEKLNLTFHVINTGISMAPNVSVKIMVPNSFLPQDDKLFNVLDVQTTTGQCHFKHYGRECTFAQQKGIAGTLTDIVKFLSKTDKRLLYCMKADQHCLDFLCNFGKMESGKEASVHIQLEGRPSILEMDETSSLKFEIKATAFPEPHPKVIELNKDENVAHVFLEGLHHQRPKRHFTIIIITISLLLGLIVLLLISCVMWKAGFFKRQYKSILQEENRRDSWSYVNSKSNDD
chain 2: ELDTKITSSGEAAEWEDPDLSLQGSCQPVPSCQKCILSHPSCAWCKQLNFTASGEAEARRCARREELLARGCPAQELEEPRGRQEVLQDKPLSQGDRGEGATQLAPQRIRVTLRPGEPQKFRVRFLRAAGYPVDLYYLMDLSYSMKDDLERVRQLGHALLVRLQEVTHSVRIGFGSFVDKTVLPFVSTVPSKLHHPCPSRLERCQPPFSFHHVLSLTGDAQAFEREVGRQNVSGNLDSPEGGFDAILQAALCQEQIGWRNVSRLLVFTSDDTFHTAGDGKLGGIFMPSDGRCHLDSNGVYTNSAEFDYPSVGQVAQALTAANIQPIFAVTGATLPVYQELRQLIPKSAVGELSEDSSNVVQLIMDAYDSLSSTVTLEHSPLPPGVSISFESHCKGPEKTEGEAGDRGQCNDVRVNQTVDFWVTLQATHCLPEAHVLRLWALGFSEELTVELHTVCDCNCGDAQPHAPYCSDGQGDLQCGICSCAPGRLGQLCECSEADLSSPDLESGCRAPNGTGPLCSGKGRCQCGRCSCSGQSSGRLCECDDASCERHEGILCGGFGHCQCGVCHCHANHTGRACECSKSVDSCVSPEGGLCSGHGYCKCNRCQCLDGYYGALCDQCLGCKSPCEQYRDCAECGAFGTGPLAANCSVVCADVNVTLTLAPNLDDGWCKERTIDNQLFFFLVEHAASGIVLRVRPQEKGVDHTRAIILGCTGGIVAVGLGLVLAYRLSVEIYDRREYRRFEKEQQQLNWKQDNNPLYKSAITTTVNPRFQGTNGRSPSLSLTREAD
- koff [1]: 0.61 s⁻¹
- koff [2]: 0.576 s⁻¹
